Molecular target: peptide #49+50 (combined sequences of EspB peptides #49 and #50) (Enteropathogenic Escherichia coli (EPEC))
Assay: ELISA, plate coated with peptide #49+50, serially diluted mAb, anti-human IgG-HRP

B1: mAb-EspB-B7 (antibody, V domains shown)
VH: EVQLLESGGGLVQPGGSLRLSCAASGFTFSHYAMNWVRQAPGKGLEWVSAINSNGDSTYYPDTVKDRFTISRDNSKNTLYLQMNSLRAEDTAVYYCARDRRAGYFDYWGQGTLVTVSS
VL: DIVLTQPPSASGTPGQRVTISCSGSRDNIGKNYVSWYQQLPGTAPKLLIYRNNQRPSGVPDRFSGSKSGTSASLAISGLRSEDEADYYCSAWDTSLNAYVFGPGTQLTVL
Binder B1 has an EC50 (read off the curve) of 0.4 µg/mL.

Source: patent US20250264433A1
